In test [1] the target is T1, human prostate-specific membrane antigen (PSMA) (human, UniProt Q04609 1-750).
T1 construct: whole, on cells; also called hPSMA; FOLH1
Kind of test: flow cytometry (FACS) on B16F10.9/PSMA cells. On the procedure:
(§1) Briefly, 2×10⁵ cells/well of human CD3-expressing Jurkat, cynomolgus T, or human PSMA-specific expressing cells were incubated with a serial dilution of bispecific antibodies for 30 min at 4° C. After incubation, cells were washed and a goat F(ab′)₂ anti-human Fcγ PE labeled secondary (Jackson Immunolabs) was added to the cells for an additional 30 min. Next, cells were washed, re-suspended in cold PBS+1% BSA and analyzed via flow cytometry on a BD FACS Canto II.
(§2) For FACS analysis, cells were gated by forward scatter height vs. forward scatter area for single events selection, followed by side and forward scatters. The EC₅₀ for cell binding titration was determined using Prism software. Values were calculated using 4-parameter non-linear regression analysis.
A general note: A flow cytometer gives signals particle by particle.

The target in test [2] is T2, human CD3 (human, UniProt P07766 23-207; P04234 22-171; P09693 23-182).
T2 construct: also called CD3 on human CD3-expressing Jurkat cells; CD3 on human T cells; copies: 2 + 1 + 1
T2 sequence (P07766 23-207 limits assumed, chain 1 of 3): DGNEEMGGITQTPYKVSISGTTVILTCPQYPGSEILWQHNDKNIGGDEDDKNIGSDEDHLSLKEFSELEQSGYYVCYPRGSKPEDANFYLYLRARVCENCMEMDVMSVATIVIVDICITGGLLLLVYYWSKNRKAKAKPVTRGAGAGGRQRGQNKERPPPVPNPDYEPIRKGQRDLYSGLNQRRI
T2 sequence (P04234 22-171 limits assumed, chain 2 of 3): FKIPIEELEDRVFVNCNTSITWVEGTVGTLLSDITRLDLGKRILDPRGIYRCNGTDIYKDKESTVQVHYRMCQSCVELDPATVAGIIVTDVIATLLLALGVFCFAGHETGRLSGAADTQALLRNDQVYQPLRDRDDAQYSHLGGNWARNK
T2 sequence (P09693 23-182 limits assumed, chain 3 of 3): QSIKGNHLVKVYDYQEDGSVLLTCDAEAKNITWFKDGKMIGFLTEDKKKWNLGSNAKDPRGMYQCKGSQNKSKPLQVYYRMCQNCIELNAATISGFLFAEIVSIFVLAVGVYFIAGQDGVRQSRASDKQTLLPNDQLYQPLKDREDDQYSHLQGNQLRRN
The test can be described thus: flow cytometry (FACS) on Jurkat cells. On the procedure:
as §1, §2

Test [3] concerns the target T1, human prostate-specific membrane …. Kind of test: cell-based or functional assay.
Test [4] concerns the target T2, human CD3. The test can be described thus: cell-based or functional assay.
Test [5] deals with T3, soluble heterodimeric hCD3 mFc protein (human).
T3 construct: Heterodimer of two different CD3 chains fused to mFc; the names of the subunits seem to have been lost in the printed text ('hCD3 mFc'); also called soluble heterodimeric CD3 protein; Soluble Human CD3
T3 sequence (P07766 23-126, chain 1 of 2): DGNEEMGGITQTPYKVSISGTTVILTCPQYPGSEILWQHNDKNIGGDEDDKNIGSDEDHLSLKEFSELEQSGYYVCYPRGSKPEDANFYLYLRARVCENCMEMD
T3 sequence (P04234 22-105, chain 2 of 2, further chain): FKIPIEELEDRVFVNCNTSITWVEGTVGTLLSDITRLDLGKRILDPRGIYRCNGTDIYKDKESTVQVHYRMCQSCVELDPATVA
Kind of test: SPR at 37° C., antigen-capture format, MASS-1. On the procedure: Measurements were conducted on a Sierra Sensors MASS-1 instrument.
In the antigen-capture format, the MASS-1 high-density amine sensor surface was derivatized with a goat anti-mouse IgG2a polyclonal antibody (Southern Biotech). Soluble heterodimeric CD3 protein was captured and the respective antibodies were injected over the captured antigen.
Kinetic association (kₐ) and dissociation (kd) rate constants were determined by processing and fitting the data to a 1:1 binding model using MASS-1 AnalyserR2 curve fitting software. Binding dissociation equilibrium constants (KD) and dissociative half-lives (t_{1/2}) were calculated from the kinetic rate constants as: KD (M)=kd/kₐ; and t_{1/2} (min) (In2/(60*kd).

A further test addresses T4, cynomolgus CD3 (cynomolgus).
T4 construct: whole, on cells; also called CD3 on cynomolgus T cells; Cyno T-cells
Kind of test: flow cytometry (FACS) on cynomolgus T cells. On the procedure: as §1, §2

T1 sequence (Q04609 whole entry): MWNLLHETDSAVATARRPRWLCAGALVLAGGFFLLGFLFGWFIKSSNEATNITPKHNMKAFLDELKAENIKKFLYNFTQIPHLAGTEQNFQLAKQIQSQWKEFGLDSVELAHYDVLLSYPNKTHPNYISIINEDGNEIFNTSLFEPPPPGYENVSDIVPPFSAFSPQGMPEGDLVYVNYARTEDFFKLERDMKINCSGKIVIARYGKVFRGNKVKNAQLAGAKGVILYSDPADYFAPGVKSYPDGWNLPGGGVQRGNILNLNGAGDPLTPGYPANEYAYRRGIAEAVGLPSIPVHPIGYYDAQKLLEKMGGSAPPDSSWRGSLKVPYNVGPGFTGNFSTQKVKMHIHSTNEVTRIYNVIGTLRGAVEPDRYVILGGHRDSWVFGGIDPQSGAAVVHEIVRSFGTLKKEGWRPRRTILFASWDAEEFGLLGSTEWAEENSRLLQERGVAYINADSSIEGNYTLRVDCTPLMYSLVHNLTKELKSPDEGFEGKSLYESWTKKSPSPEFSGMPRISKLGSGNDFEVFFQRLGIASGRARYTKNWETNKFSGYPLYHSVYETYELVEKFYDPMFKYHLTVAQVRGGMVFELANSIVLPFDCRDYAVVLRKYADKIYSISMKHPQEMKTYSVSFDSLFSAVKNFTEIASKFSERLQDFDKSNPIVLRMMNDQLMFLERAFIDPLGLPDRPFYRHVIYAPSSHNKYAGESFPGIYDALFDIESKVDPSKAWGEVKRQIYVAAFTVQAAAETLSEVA
T4 sequence (Q95LI5 22-198, chain 1 of 3): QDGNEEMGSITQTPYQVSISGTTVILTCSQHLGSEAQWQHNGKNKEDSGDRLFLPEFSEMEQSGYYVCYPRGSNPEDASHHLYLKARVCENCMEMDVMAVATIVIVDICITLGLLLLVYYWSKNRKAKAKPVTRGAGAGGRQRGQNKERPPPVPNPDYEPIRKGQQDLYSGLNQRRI
T4 sequence (Q95LI8 22-171, chain 2 of 3, further chain): as the sequence (P04234 22-171 limits assumed, chain 2 of 3) above, with I5V, N15K, I20V, S32T, D33N, I34N, T64A, S74N, V83L, H141R counted along it
T4 sequence (Q95LI7 23-181, chain 3 of 3, further chain): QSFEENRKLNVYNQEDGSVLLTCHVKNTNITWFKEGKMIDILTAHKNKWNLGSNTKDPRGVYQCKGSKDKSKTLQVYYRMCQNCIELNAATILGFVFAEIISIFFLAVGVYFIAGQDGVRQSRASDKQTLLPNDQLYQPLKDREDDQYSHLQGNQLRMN

B1: PSMA/CD3-001 (bispecific antibody, V domains shown)
VH 1: QVQLVESGGGVVQPGRSLRLSCAASGFTFSSYGMHWVRQAPGKGLEWVAVISYAGNNKYYADSVKGRFTVSRDNSKKTLYLQMNSLRSEDTAVYYCAKDSYYDFLTDPDVLDIWGQGTMVTVSS
VH 2: EVQLVESGGGLVQPGRSLRLSCAASGFTFDDYSMHWVRQAPGKGLEWVSGISWNSGSIGYADSVKGRFTISRDNAKNSLYLQMNSLRAEDTALYYCAKDGSGYGKFYYYGMDVWGQGTTVTVSS
VL: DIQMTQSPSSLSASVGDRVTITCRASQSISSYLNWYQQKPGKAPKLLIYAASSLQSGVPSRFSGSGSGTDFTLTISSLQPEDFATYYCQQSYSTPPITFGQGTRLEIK
notes: also called anti-PSMA x anti-CD3 bispecific antibody with anti-CD3 arm CD3-VH-G5
The molecule B1 came in with an EC50 in test [1] of 1.31 nM. The same molecule registered an EC50 with human CD3 [2] of roughly 1000 nM. In test [3], the “22RV1 Cell depletion EC50” value was found to be 0.00631 nM, the “C4-2 Cell depletion EC50” value was determined as 0.0215 nM and the “TrampC2.PSMA Cell depletion EC50” value worked out at 0.0115 nM. The “T cell activation EC50 [M] (percent CD69+ of CD2+ T cells)” value with human CD3 [4] was 1.34e-11 M.

B2: PSMA/CD3-002 (bispecific antibody, V domains shown)
VH 1: QVQLVESGGGVVQPGRSLRLSCAASGFTFSSYGMHWVRQAPGKGLEWVAVISYAGNNKYYADSVKGRFTVSRDNSKKTLYLQMNSLRSEDTAVYYCAKDSYYDFLTDPDVLDIWGQGTMVTVSS
VH 2: EVQLVESGGGLVQPGRSLRLSCAASGFTFDDYSMHWVRQAPGKGLEWVSGISWNSGSIGYADSVKGRFTISRDNAKNSLYLQMNSLRAEDTALYYCAKYGSGYGKFYYYGMDVWGQGTTVTVSS
VL: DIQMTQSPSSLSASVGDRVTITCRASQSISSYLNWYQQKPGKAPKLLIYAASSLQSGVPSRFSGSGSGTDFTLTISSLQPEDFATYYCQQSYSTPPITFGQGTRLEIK
notes: also called REGN4336; anti-PSMA x anti-CD3 bispecific antibody with anti-CD3 arm CD3-VH-G20
For the molecule B2, in test [5], the Kd came to 334 nM, the T1/2 is 2 min, the koff was 0.00577 s⁻¹ and the on-rate (kon) came out at 17300 M⁻¹ s⁻¹. A half-maximal effect in test [1] (EC50) was put at 2.09 nM. This molecule had an EC50 in the test with cynomolgus CD3 of 6140 nM. In the test with human CD3 [2], the response was half-maximal at 210 nM (EC50). Further, in test [3], the “22RV1 Cell depletion EC50” value is 0.00832 nM and the “C4-2 Cell depletion EC50” value was 0.0139 nM. Besides, the “T cell activation EC50 [M] (percent CD69+ of CD2+ T cells)” value in the test with human CD3 [4] stood at 6.11e-12 M.

As a reminder, the EC50 is the midpoint of the concentration-response curve. What is called Kd is a measure of binding affinity in units of concentration. A higher Kd goes with weaker binding. By koff is commonly meant a measure of how fast the partners let go of each other. A low value points to a long-lived complex. As usually defined, the kon is a measure of how fast the partners come together. Low readings indicate slower complex formation, high ones faster complex formation.

Values taken from US20250304714A1 (Regeneron, published 2025).
